Source: patent publication US20240166738A1 (Alector, published 2024)

Columns and labels:
human TMEM106B = human TMEM106B (human, UniProt Q9NUM4 2-274); test: cell-based or functional assay; further: test concentration or dose not given here
[1] = target: T1, GST-TMEM106B (truncated, comprising amino acids 122-210 of SEQ ID NO:1) (human, UniProt Q9NUM4 122-210); test: pre-mix epitope binning, antibody immobilized on chip array
T1 construct: GST written first by the name only; also called truncated GST-TMEM106B fusion protein; GST-TMEM106B polypeptide fusion; not shown: GST fusion partner

Binder | % Protection from CPE (human TMEM106B) | binding result [1]
TM-85 (antibody, V domains shown, mouse hybridoma mAb) VH: QVQLQQPGAELVRAGTSVKLSCKASGYTFIGYWMHWVKQRPGRGLEWIGRIDPYSGDTRYNEKFKNKATLTVDKPSSTAYMQLSSLTSEDSAVYYCARYGLGHAMDYWGQGTSVTVSS VL: DIAMSQSQKFMSTSVGDRVSVTCKASQNVGTNVAWYQQKPGQSPKALIYSASYRYSGVPDRFTGSGSGTDFTLTISNVQSEDLAEYFCQQYNSYPLTFGAGTKLEMK | 5.2% | no binding (tested: 55 nM antigen (2 ug/mL))
TM-12 (antibody, V domains shown) VH: EVQLQQSGAELMRPGASVKLSCTASGFNIQDYYMYWVKQRPEQGLEWIGRIDPEDGDAEYAPKFQGKATMTADTSSNTAYLQLSSLTSEDTAVYYCSTRVIYDGYYRTMDCWGQGTSVTVSS VL: DVLMTQIPLSLPVSLGDQASISCRSSQTIVHSNGNTYLEWYLKKPGQSPKLLIDKISNRFSGVPDRFSGSGSGTDFTLKISRVEAEDLGVYYCFQGSHVPYTFGGGTKLEIK | 95.9% | 
TM-70 (antibody, V domains shown) VH: EVQLVESGGALVKPGGSLKLSCAASGFTFSNYAMSWVRQTPEKRLEWVATIGYGGSYSYYPDSVKGRFTISRDNAKYTLYLQMSGLRSEDTALYYCARQDSNYEGVWFAYWGQGTLVT VL: not shown | 3.4% | 
TM-82 (antibody, V domains shown) VH: QVQLQQSGAELVRPGTSVRVSCKASGYAFTNYLIEWIKQRPGQGLEWIGVINPGSGITDYSEKFKGKARLTADKSSSTAYMQLSSLTSDDSAVYFCTRSPFITTVVADYWGQGTTVTVSS VL: DVVVTQTPLSLPVSFGDQVSISCRSSQSLANTYGNTYLSWYLHTPGQSPQLLIFGISNRFSGVPDRFSGSGSGTDFTLKISTIKPEDLGVYYCLQGTHPPRTFGGGTKLEMK | 3.2% | 
TM-65 (antibody, V domains shown, mouse hybridoma mAb) VH: QVQLQQPGAEFVKPGASVRLSCKTSGYTFTSSWMHWVKQRPGQGLEWIGEINPKNGGTNYNEKFKTKATLTVDKSSNTAYMQLSSLTSEDSAVYYCTIPTWFTYWGQGTLVTVSS VL: DIQMNQSPSSLSASLGDTITITCRASQNINIWLSWYQQKPGNVPKLLIYKASNLHTGVPSRFSGSGSGTGFTLTISSLQPEDIATYYCLQGQSYPYTFGGGTKLGIK | 4% | no binding (tested: 55 nM antigen (2 ug/mL))
TM-31 (antibody, V domains shown, mouse hybridoma mAb) VH: QVQLQQSGAELAKPGASVKVSCKASGYTFISYWMNWVKQRPGQGLEWIGYINPTSGYTRYNQKFKDKATLTADKSSSTAYMQLSSLTYEDSAVYYCARSPPTVVLIGYFDYWGQGTTLTVSS VL: DIKMTQSPSSMYASLGERVTFTCKASQDINSYLSWFQQKPGKSPKTLIYRGNGLVDGVPSRFSGSGSGQDYSLTISSLEYEDMGIYYCLQYDEFPFTFASGTKLEIK | 7.7% | no binding (tested: 55 nM antigen (2 ug/mL))
TM-33 (antibody, V domains shown, mouse hybridoma mAb) VH: EFQLQQSGPELVKPGASVKISCKASGYSFTDYNMNWVKQSNGKSLEWIGVINPNYGTTSYNQKFKGKATLTVDQSSSTAYMQLNSLTSEDSAVYYCASSYWGQGTLVTVSA VL: DIVMTQSQKFMSTTVGDRVSITCKASQNVGTAVAWYQQKPGQSPKLLIYSASNRYTGVPDRFTGSGSGTDFTLTISNMQSEDLADYFCQQYSSYPYTFGGGTKLEIK | 4.4% | no binding (tested: 55 nM antigen (2 ug/mL))
TM-56 (antibody, V domains shown, mouse hybridoma mAb) VH: QVHLQQSGAELAKPGASVKLSCKASGYTFTSYWMHWVKQRPGQGLEWIGYINPSSGYSKYNQRFKDKATLTADKSSTTAYMHLSSLTYADSAVYYCTREGGSISDWYFDVWGTGTTVTVSS VL: DIEMTQAAPSVPVTPGESVSISCRSSKSLLQNNGNTYLYWFLQRPGQPPQLLIYRMSNLASGVPDRFSGSGSGTAFTLRISRVEAEDVGVYYCMQHLEYPYTFGGGTKLEIK | 89.7% | no binding (tested: 55 nM antigen (2 ug/mL))
TM-14 (antibody, V domains shown, mouse hybridoma mAb) VH: QVQLQQSGPELVRPGTSVKVSCKASGYAFTNYLIEWVKQRPGQGLEWIGVINPGGGNTDYSEKFKDKATLTADKSSNTAYIQLSSLTSEDSAVYFCARSPYSSYVGYAVDYWGQGTSVTVSS VL: DIQMTQSPSSLSASLGERVSLTCRASQDIGSNLNWLQQEPDGTIKRLIYATSSLDSGVPKRFSGSRSGSDYSLTISSLESEDFVVYYCLQYASSPRTFGGGTRLEIK | 4% | no binding (tested: 55 nM antigen (2 ug/mL))
TM-81 (antibody, V domains shown, mouse hybridoma mAb) VH: QVQLQQSGAELVKPGASVKLSCKASGYTFTSYWMHWVKQRPGQGLEWIGNIDPSDSEIHYNQKFKDKATLTVDKSSSTAYIQLSSLTSEDSAVYYCARSPAGQILDYWGQGTTVTVSS VL: not shown | 4.6% | no binding (tested: 55 nM antigen (2 ug/mL))
TM-6 (antibody, V domains shown, mouse hybridoma mAb) VH: QVQLQQSGAELVKPGASVKLSCKASGYTFTEYTIHWVKQRSGQGLEWIGWFYPGSTYIDYNEKFKDKATLTADKSSSTVYLELSRLTSEDSAVYFCARHEEDYSNWFPFWGQGTLVTVSA VL: DIQMSQSSSYLSVSLGGRVTITCKASDHINNWLAWYQQKPGNAPRLLISGATSLETGVPSRFSGSGSGKDYTLSITSLQTEDVATYYCQQYWSSPYTFGGGTKLEIK | 4.4% | no binding (tested: 55 nM antigen (2 ug/mL))
TM-68 (antibody, V domains shown) VH: EVQLQQSGAELVRPGASVKLSCTASGFNIKDDYMHWVRQRPEQGLEWIGWIDPENGDTEYASKFQGKATMTADTSSNTAYLHLSSLTSEDTAVYYCTKPQTATTCWGQGTLVTVSS VL: DIVMTQAAFSNPVTLGTSVSISCSSSKSLLHSSGITYLYWYLQRPGQSPQLLIYRMSNLASGVPDRFSGSGSGTDFTLRISRVEAEDVGVYYCAQMLERPWTFGGGTKLEIK | 3.5% | 
TM-69 (antibody, V domains shown, mouse hybridoma mAb) VH: QVQLKESGPDLVQPSQTLSLTCTVSGFSFTSYGVHWVRQPPGKGLEWVGIMGWDDKKYYNSALKSRLSISRDTSKNQVFLKLSSLQTEDTAMYYCTREAGPYGMDYWGQGTSVTVSS VL: DVVMTQTPLSLPVSLGDQASISCRSSQSLVHSNGNTYLHWYLQKPGQSPKLLIYKVSNRFSGVPDRFSGSGSGTDFTLKISRVEAEDLGVYFCSQNTHVPLTFGAGTKLELK | 4.3% | no binding (tested: 55 nM antigen (2 ug/mL))
TM-75 (antibody, V domains shown, mouse hybridoma mAb) VH: EVQLQQSGPELVKPGASVKMSCKASGYTFTSYVMHWVKQKPGQGLEWIGYINPYNDGTKYNEKFKGKATLTSDKSSSTAYMELSSLTSEDSAVYYCARGGWFPYAMDYWGQGTTVTVSS VL: not shown | 5.1% | no binding (tested: 55 nM antigen (2 ug/mL))
TM-66 (antibody, V domains shown, mouse hybridoma mAb) VH: EVMLVESGGALVEPGGSLKLSCAASGITFSNYAMSWIRQTPEKRLEWVATIGSVGSYTYYPDSVKGRFTISRDNARNTLYLQMSSLRSEDTAMYYCARQEGSSHFDYWGQGTTLTVSS VL: DVVVTQTPPSLPVSFGDQVSISCRSSQSLVNSYGKTFLSWYLHKPGQSPQLLIYGISNRFSGVPDRFSGSGSGTVFTLKISTIKPEDLGMYYCLQGTHPPLTFGAGTKLEMK | 5.9% | no binding (tested: 55 nM antigen (2 ug/mL))
TM-2 (antibody, V domains shown, mouse hybridoma mAb) VH: HIQLVQSGPELKKPGETVKISCKASGYTFTEYPMHWVKQAPGKGFRWMGMIYTNTGEPTYAAEFKGRFAFSLETSASTGYLQINNLKNEDSATYFCVTAGYWGQGTLVTVSA VL: QIVLTQSPAILSASPGEKVTMTCRASSSVSYIHWFLQKPGSSPKPWIYATSNLASGVPFRFIGSGSGTSYSLTISGVEAEDSATYYCQQWSSNPSTFGAGTKLELK | 4.3% | no binding (tested: 55 nM antigen (2 ug/mL))
TM-62 (antibody, V domains shown, mouse hybridoma mAb) VH: QVQLQQPGTELVRPGSSVKLSCKAAGYTFTRYWMHWVKQRPIQGLEWIGNIDPSDSETQYNPKFKDKATLTVDRSSSTAYMHLSSLTSEDSAVYYCARLTTLDYAMDYWGQGTSVTVSS VL: QIVLTQSPAIMSASPGEKVTISCSASSSVSYMYWYQQKAGSSPKPWIHRTSNLASGVPARFSGSGSGTSYSLTIRSMEAEDAATYYCQQYHSYPPTFGVGTKLELK | 84.2% | no binding (tested: 55 nM antigen (2 ug/mL))
TM-49 (antibody, V domains shown, mouse hybridoma mAb) VH: QVQLQQPGAELVRPGSSVKLSCKASGYTFTRFWMHWVKQRPIQGLEWIGNIDPSDSQTHYNQKFKDKATLTVDKSSSTAYMQLSSLTSEDSAVYYCARLITVDYAMDYWGQGTSVTVSS VL: QIVLTQSPAIMSASPGEKVTISCSASSSVSYMYWYQQKPGSSPKPWIHRTSNLASGVPVRFSGSGSGTSYSLTISSMEAEDAATYYCQQYHSYPPTFGAGTKLELK | 49.6% | no binding (tested: 55 nM antigen (2 ug/mL))
TM-27 (antibody, V domains shown, mouse hybridoma mAb) VH: QVQLQQSGAELVRPGTSVKVSCKASGYALTNYLIEWVKQRPGQGLEWIGVINPGSGSTKYNEKFKGKATLTADKSSSTAYMQLSSLTSEDSAVYFCARIIYDHDWYFDVWGTGTTVTVSS VL: QIVLTQSPAIMSASPGEKVTISCSASSSISYMYWYQQKPGSSPKPWIYRTSTLASGVPARFSGSGSGTSYSLTISSMEAEDAATYYCQQYHSYPRTFGGGTKLEIK | 5.2% | no binding (tested: 55 nM antigen (2 ug/mL))
TM-44 (antibody, V domains shown) VH: EVQLVESGGGLVKPGGSLKLSCAASGFTFSDYGMHWVRQAPEKGLEWVAYISSGSSTIYYADTVKGRFTISRDNAKNTLFLQMTSLRSEDTAMYYCARNYGSPYAMDYWGQGTSVTVSS VL: not shown | 3.2% | 
